Assay: soluble on expression in E. coli; label from the status in PepcDB or PDB records

Question: Which “soluble on expression in E. coli” value does the source give for “MIGYPIVFRCCECTVEEQTMEHLESHIWSRHLQAFPFKCAYCDFPALSAISLMDHFAQNHSDVAIVEFKRNLEDEKRFRKMVADSIAIEIDETSQQDSSTQMTVLQPMMQQGTAQMILLPPEGSQYDEIVDHRGPDEDDFGVLDDDENIEELIDDDDDDDYIDELGNPVFIGAHDDSDYILEDDLSPQGPIRSSNNYHLKYIRTRRMDKLIDNVVVNATQRDSPEQEDCSTSGVAFADGQTNSGKMGRFSCDRCSRTFKYQSKLDEHRRTHLGVKPFQCHYCTRQFSQRGALKTHMRLHTGERPFVCQWECGKQFASSSAKSHHEKTHSGERPYICNVCGKSFTKNSHVIRHLKNIHNRELAQQDAMLRGDDVQSTDESLNIGSARSQMSDIEPRGKEIGVVHDIVEQIHEERKDFMRL” here?
Answer: Its value is “not soluble”.

Question: Which “soluble on expression in E. coli” value does the source give for “MVNGDGNPREVIEDLAANNPAIQNIRLRHENKDLKARLENAMEVAGRDFKRAEELEKAKQALEDQRKDLETKLKELQQDYDLAKESTSWDRQRLEKELEEKKEALELAIDQASRDYHRATALEKELEEKKKALELAIDQASQDYNRANVLEKELE” here?
Answer: The value was “soluble”.

Question: For “MGHHHHHHSHMADTLAILNEFLLERSKREAEEENQIANKTGKDAQFEEDWQLSQFWYSTETKHALRDVVRKLLAERTKDSGDFSIALLSCPSLYKDIREIHDTVHIFEFDKRFEAYGTDFVHYDLNCVGSNPDYLKEHHQQYDLIVADPPF”, which “soluble on expression in E. coli” value is on record?
Answer: The value was “soluble”.

Question: With “MGSDKIHHHHHHMGYVAVRGGSEAISRAEELVTCLRLLGGSTPLQLPQIRDQLRHAVSRAMHEGALYAPLLAALALKQAEGDSIEAAFLLRAYRTTLPRVMASLPASGRDISCLRRISASFKDIPGGQILGPASDYLIRLLQPDLAHETIVDVARAAEQYAALVEKGGIRSGEWGRFPKVADYMRQEQMIVDIPADSEETEPFDITREPLVFPCPRSARLQALMQADTGSLMCLAYSSVRGYGDAHPALVELRYGYLAIQVAHPLTGEPITIGEIEVTETEVASKAHSVTSRTGTPRFNVGYGFAFGQSELKTMSMAILDSVLTQARAGSLAGESGPAADEEFVLLHTDGIEASGFVAHFKLPHYVTFAADLSVLDRARDHHAQQQSRLHQLVDQALTE” as the sequence, how does the “soluble on expression in E. coli” value read?
Answer: The value was “not soluble”.

Question: For “MRGSHHHHHHGSTTFNIQDGPDFQDRVVNSETPVVVDFHAQWCGPCKILGPRLEKMVAKQHGKVVMAKVDIDDHTDLAIEYEVSAVPTVLAMKNGDVVDKFVGIKDEDQLEAFLKKLIG”, which “soluble on expression in E. coli” value is on record?
Answer: The value was “soluble”.

Question: Which “soluble on expression in E. coli” value does the source give for “MITSTTTDYKNFFKHSAHPANAEQYFRELLDKRERRYEDLCRNIISDMNQYGLSVVDDFLGMETGLKILNEVRSMYNAGAFQDGQVVTNQTPDAPAVRGDKIRGDKIKWVGGNEPGCSNVWYLTNQIDSVVYRVNTMKDNGILGNYHIRERTRAMVACYPGSGTHYVMHVDNPQKDGRVITAIYYLNINWDARESGGILRIRPTPGTTVADIEPKFDRLIFFWSDIRNPHEVQPAHRTRYAITVWYFDAKEREEALIRAKLENSKTNNLAAQAQAQQAEPDSTTTPPAAPASSASSLPVSMSTGTGALNANVSSNSCATSSEICT” here?
Answer: The value was “not soluble”.

Question: With “MGKHKVGAVFLAGVLAMGTVMTGCSGKDETEGKTVIEMVQYKPEAVDIFEQFQDEFNATHDDIYLKIDSPNDAMTILKTRFIREDNPDIIGIGGDINYSNFLDADMLMDISDFEGLNDIKEKYLEMNKDLEYVPKDGVYAVPYMANAAGILFNRDMFEEHGWEVPTTWTEFTNLCDQIQSEGIQPLYFGFKDTWTTLAPWNAIAVSLCDSDLTYQVNSGKTTFAENYREVAEKEKALLTYGQKDPVSQGYNDACTAFARGASAMFTIGSYAISQIKSVNPDMNIGSFVFPANEDADKNVLNSGNDLMFCVMKDCKNKEAAYEVLSYMLEDENVKKYLNAQSAVPCKKGDFEVTPELEEMRDYIENGIVADYQDHHYPSEMSVDAMIQTYLMDDSADATDTFMKRFDKEWIRYNRDIVAKVKAYEEGNDHE” as the sequence, how does the “soluble on expression in E. coli” value read?
Answer: Its value is “not soluble”.

Question: Which “soluble on expression in E. coli” value does the source give for “RQAVGPGGVPAGAGGSGAVLGPEAAGPEREEPECGSSGGGMSRPPPTGKMPGAPETAPGDGAGASRQRKLEALIRDPRSPINVESLLDGLNSLVLDLDFPALRKNKNIDNFLNRYEKIVKKIRGLQMKAEDYDVVKVIGRGAFGEVQLVRHKASQKVYAMKLLSKFEMIKRSDSAFFWEERDIMAFANSPWVVQLFYAFQDDRYLYMVMEYMPGGDLVNLMSNYDVPEKWAKFYTAEVVLALDAIHSMGLIHRDVKPDNMLLDKHGHLKLADFGTCMKMDETGMVHCDTAVGTPDYISPEVLKSQGGDGFYGRECDWWSVGVFLYEMLVGDTPFYADSLVGTYSKIMDHKNSLCFPEDAEISKHAKNLICAFLTDREVRLGRNGVEEIRQHPFFKNDQWHWDNIRETAAPVVPELSSDIDSSNFDDIEDDKGDVETFPIPKAFVGNQLPFIGFTYYRENLLLSDSPSCRENDSIQSRKNEESQEIQKKLYTLEEHLSNEMQAKEELEQKCKSVNTRLEKTAKELEEEITLRKSVESALRQLEREKALLQHKNAEYQRKADHEADKKRNLENDVNSLKDQLEDLKKRNQNSQISTEKVNQLQRQLDETNALLRTESDTAARLRKTQAESSKQIQQLESNNRDLQDKNCLLETAKLKLEKEFINLQSALESERRDRTHGSEIINDLQGRICGLEEDLKNGKILLAKVELEKRQLQERFTDLEKEKSNMEIDMTYQLKVIQQSLEQEEAEHKATKARLADKNKIYESIEEAKSEAMKEMEKKLLEERTLKQKVENLLLEAEKRCSLLDCDLKQSQQKINELLKQKDVLNEDVRNLTLKIEQETQKRCLTQNDLKMQTQQVNTLKMSEKQLKQENNHLMEMKMNLEKQNAELRKERQDADGQMKELQDQLEAEQYFSTLYKTQVRELKEECEEKTKLGKELQQKKQELQDERDSLAAQLEITLTKADSEQLARSIAEEQYSDLEKEKIMKELEIKEMMARHKQELTEKDATIASLEETNRTLTSDVANLANEKEELNNKLKDVQEQLSRLKDEEISAAAIKAQFEKQLLTERTLKTQAVNKLAEIMNRKEPVKRGNDTDVRRKEKENRKLHMELKSEREKLTQQMIKYQKELNEMQAQIAEESQIRIELQMTLDSKDSDIEQLRSQLQALHIGLDSSSIGSGPGDAEADDGFPESRLEGWLSLPVRNNTKKFGWVKKYVIVSSKKILFYDSEQDKEQSNPYMVLDIDKLFHVRPVTQTDVYRADAKEIPRIFQILYANEGESKKEQEFPVEPVGEKSNYICHKGHEFIPTLYHFPTNCEACMKPLWHMFKPPPALECRRCHIKCHKDHMDKKEEIIAPCKVYYDISTAKNLLLLANSTEEQQKWVSRLVKKIPKKPPAPDPFARSSPRTSMKIQQNQSIRRPSRQLAPNKPS” here?
Answer: Its value is “soluble”.

Question: Which “soluble on expression in E. coli” value does the source give for “GMANLLSTCTSESGNIQHISPQNAGWEYVGFDVWQLKAGESITLPSDERERCLVLVAGLASVKAADSFFYRIGQRMSPFERIPAYSVYLPHHTEAKVTAETDLELAVCSAPGFGELPVRLISPQEVGVEHRGKGRNQRLVHNILPDSQLADSLLVVEVYTNAGATSSWPAHKHDTAVEGQETYLEETYYHRFNPPQGFCLQRVYTDDRSLDECMAVYNRDVVKVPKGYHPVATIAGYDNYYLNVMAGPLRKWRFTWEENHAWINSPDYPR” here?
Answer: The value was “soluble”.

Question: With “MFSIQIPALHGKYLREVLESIREQTFQDYEVVVVNSGGGVISDIVHEYGFKEVRKDVKLLEARYLANKESRGDYAFLLDETRPLRKDALEILSKNLHDMVIIGERELGDSFWSRAAQLDKENIMECNSPEAVRGFALPRLFKRELLTASLEKLRENLREKFSQVVFPDHELIYYEASGFSNDIFVIKDELVYHYGDFTLKEIVRKYYRYGKSLKVLKDTPYSFMTSVSRKRREICVGGIKGRLTLYILYLARGIPFLFGKFSLLEHHHHHH” as the sequence, how does the “soluble on expression in E. coli” value read?
Answer: Its value is “soluble”.

Question: Which “soluble on expression in E. coli” value does the source give for “MAHHHHHHMKRFFKSDGTPYNRDAANNLYGSEHTHRGGVEALSEGVAAGQYGEHKPRAIMFVNKRPVEIIPQEENLLEVLEREGIRVPKFCYHPILSVAGNCRMCLVQVDGTQNLVVSCATVALPGMSIITDSRLVRDAREGNVELILINHPNDCPICEQATNCDLQNVSMNYGTDIPRYKEDKRAVQDFYFDPQTRVVLNRCIHCTRCVRFLNEHAQDFNLGMIGRGGLSEISTFLDELEVKTDNNMPVSQLCPVGKIYLGDADENNLIAEQLDVSYESECGDRGTVTLGK” here?
Answer: Its value is “not soluble”.

Question: Which “soluble on expression in E. coli” value does the source give for “MAHHHHHHMVDDILKCIHNEFKYVLISCDINNEIKELTFKGSEEKFQNTLGSYFRRIIFDEKGKDELKESIKEKLKTNDKNDEDKEKVNTISPDIINNAIESSQTYQIIPLTIPNEKNDFLGINCYIDDIGRIKKLPYNSRASRICSTEIYGDAFLSKTYDNEDFKRCDFTISEYDEFLKNPPKSENRWDQAQAMQNLLKQMKGQNDAGVNDEAPTEKVNACEHCYKEQNLKRCGRCKKVYYCSVECQKSDYVFHKRICS” here?
Answer: The value was “soluble”.

Question: For “MVMVLDSLGRALSNALKKIARAGSVDEALVKEVVRDIQRALLQADVNVRLVLKLTKEIQRRALEEKPPAGISKKEHIIKIVYEELTKFLGTEAKPIEIKEKPTVLLTVGVQGSGKTTTVAKLARYFQKRGYKVGVVCSDTWRPGAYHQLKQLLDPYHIEVFGDPNEKDAVKLAKEGVEYFKTRDVDLIIVDTAGRHKEEKDLIEEMRMISEEIRPHEVILVIDGTIGQQAYNQALAFKEATPIGSIIVTKLDSSAKGGGALSAVAATGAPIKFIGVGEKIDDLEPFDPARFVSRLLGLGDIQGLLEKFKELEKEVEFTEEDIDRFLRGKFTLKDMYAQLEAMRKMGPLKQILRMIPGLGYSLPDELISVGEERLRKFKVIMDSMTEEELMNPEIINYSRIKRIARGSGTSIKDVKELLTQYNQMKKFFKSMNKRQLSRLARRFGM”, which “soluble on expression in E. coli” value is on record?
Answer: Its value is “soluble”.

Question: Which “soluble on expression in E. coli” value does the source give for “MGSDKIHHHHHHMSIEIRQVNNLRKKRQFFQYNYQLYKDDPYWVSWPVANLVKMFDPEECGFYEHGILEAWLAYQNGKIVGRIAGSIDGTYNQTYGVQTAFFGFYECIDDQDVSKILFEQVENWAQSYGMTQLLGPFSLSPIYGAGMLIAGFDDSPYVAMPYNRSYYPNQLESSGFKKAKDYNAFRIKGELTIPEFLTKNAQRWRNKRITYRQLNPDQLAQESDLVCDLYNDGFAGQWGYTYIERSEFYQLVLDWIQVIDPRLFLFVLIGDNPVGFGMLVPDVFQILHQTKTLPGLLRYLGRRIFTFGRENEITRYRLDSLCIRKQYQSLGLGVLLWCEIMQQYLNSNYTEIEFSPILEDNTMAQTLLLKLGAERSKVYRVFEKSWCN” here?
Answer: Its value is “not soluble”.

Question: Which “soluble on expression in E. coli” value does the source give for “MNVVLVGTDPNGLTDALEAEGHTVMVADVGNRPGLEEAGIHEADVYLLTEMSQATSIAVAKDLNPDLRVVVYAEGSLPDFASRQTDLVVDPDLLGSDAVAEEL” here?
Answer: Its value is “not soluble”.

Question: With “SMVSPREKQQTNSKGSSNFCVKNIKQAEFGRREIEIAEQDMSALISLRKRAQGEKPLAGAKIVGCTHITAQTAVLIETLCALGAQCRWSACNIYSTQNEVAAALAEAGVAVFAWKGESEDDFWWCIDRCVNMDGWQANMILDDGGDLTHWVYKKYPNVFKKIRGIVEESVTGVHRLYQLSKAGKLCVPAMNVNDSVTKQKFDNLYCCRESILDGLKRTTDVMFGGKQVVVCGYGEVGKGCCAALKALGAIVYITEIDPICALQACMDGFRVVKLNEVIRQVDVVITCTGNKNVVTREHLDRMKNSCIVCNMGHSNTEIDVTSLRTPELTWERVRSQVDHVIWPDGKRVVLLAEGRLLNLSCSTVPTFVLSITATTQALALIELYNAPEGRYKQDVYLLPKKMDEYVASLHLPSFDAHLTELADDQAKYLGLNKNGPFKPNYYRY” as the sequence, how does the “soluble on expression in E. coli” value read?
Answer: The value was “soluble”.
